What follows are binders tested against T1, HIV-1 HXB2 envelope protein (ENV), gp41 transmembrane subunit (HIV-1 HXB2, UniProt P04578 33-856) (assay: cell-based or functional assay).
With LLQLTVWGIKQLQARILK (sphinganine on the N-terminus) [Sphinganine-N17K] the “inhibitory concentration at 50% infectivity (IC50)” value was 116 nM. For LLQLTVWGIKQLQARILK (sphinganine on the side chain of the C-terminal Lys) [N17K-sphinganine], the “IC50 value, viral infectivity” value was 287 nM.

These binders were tested against HIV-1 LAI ENV (CXCR4 tropic) (HIV-1 LAI, UniProt P03377 33-861) (assay: cell-based or functional assay).
With LLQLTVWGIKQLQARIL (sphinganine (dihydrosphingosine) on the N-terminus) [Sphinganine-N17] the “IC50, infection of TZM-bl cells by pseudotyped virus” value was 312 nM.

These binders were tested against HIV-1 AD8 ENV (CCR5 tropic) (HIV-1 AD8) (assay: cell-based or functional assay).
With LLQLTVWGIKQLQARIL (sphinganine (dihydrosphingosine) on the N-terminus) [Sphinganine-N17] the “IC50, infection of TZM-bl cells by pseudotyped virus” value was 403 nM.

Biological target: T1, HIV-1 HXB2 envelope protein (ENV), gp41 …
Assay: cell-based or functional assay
Remark: another data set of the same source
For LQARILAVERYLKDQQL (sphinganine on the N-terminus) [Sphinganine-ShN17], the “IC50 (nM), antiviral activity in a fully infectious HIV-1 system” value (“IC50 (nM), antiviral activity” for short) was 886 nM. With LLQLTVWGIKQLQARIL (sphingosine on the N-terminus) [Sphingosine-N17] the “IC50 (nM), antiviral activity” value was 208 nM. In the case of LLQLTVWGIKQLQARIL (palmitic acid (C16) on the N-terminus) [Palmitic acid-N17], the “IC50 (nM), antiviral activity” value is reported as greater than 4000 nM. LLQLTVWGIKQLQARILK (sphinganine on the N-terminus) [Sphinganine-N17K] was tested, and the “IC50 (nM), antiviral activity” value was 118 nM. ELQLTQWKIKQLLARILK [N17mut (e, g) K] was tested, and the “IC50 (nM), antiviral activity” value was greater than 4000 nM. For LLQLTVWGIKQLQARIL (sphinganine (dihydrosphingosine) on the N-terminus) [Sphinganine-N17], the “IC50 (nM), antiviral activity” value was 121 nM. With YTSLIHSLIEESQNQQEKNK (sphinganine on the side chain of the C-terminal Lys) [DP19K-sphinganine] the “IC50 (nM), antiviral activity” value was 350 nM. LLQLTVWGIKQLQARIL (tocopherol (alpha-tocopherol succinate) on the N-terminus) [Tocopherol-N17] was tested, and the “IC50 (nM), antiviral activity” value was greater than 4000 nM. In the case of ELQLTQWKIKQLLARILK (sphinganine on the N-terminus) [Sphing-N17mut (e, g) K], the “IC50 (nM), antiviral activity” value is reported as 120 nM. ELQLTQWKIKQLLARILK (sphinganine on the side chain of the C-terminal Lys) [N17mut (e, g) K-sphing] was tested, and the “IC50 (nM), antiviral activity” value was 120 nM. In the case of LLQLTVWGIKQLQARIL (cholesterol on the N-terminus) [Cholesterol-N17], the “IC50 (nM), antiviral activity” value is reported as greater than 4000 nM. In the case of LLQLTVWGIKQLQARIL [N17], the “IC50 (nM), antiviral activity” value is reported as greater than 4000 nM. For LLQLTVWGIKQLQARILK (sphinganine on the side chain of the C-terminal Lys) [N17K-sphinganine], the “IC50 (nM), antiviral activity” value was 291 nM. In the case of YTSLIHSLIEESQNQQEKNK [DP19K], the “IC50 (nM), antiviral activity” value is reported as 2210 nM. In the case of LLQLTVWGIKQLQA (sphinganine on the N-terminus) [Sphing-N14], the “IC50 (nM), antiviral activity” value is reported as 500 nM. For LLQLTVWGIKQLQA [N14], the “IC50 (nM), antiviral activity” value was greater than 4000 nM. For LLQLTVWGIKQLQARILK [N17K], the “IC50 (nM), antiviral activity” value was greater than 4000 nM.
